Measurements taken from FireProtDB (doi:10.1074/jbc.m704364200).

B1: Prolactin, P01236 (parent)
chain: MNIKGSPWKGSLLLLLVSNLLLCQSVAPLPICPGGAARCQVTLRDLFDRAVVLSHYIHNLSSEMFSEFDKRYTHGRGFITKAINSCHTSSLATPEDKEQAQQMNQKDFLSLIVSILRSWNEPLYHLVTEVRGMQEAPEAILSKAVEIEEQTKRLLEGMELIVSQVHPETKENEIYPVWSGLPSLQMADEESRLSAYYNLLHCLRRDSHKIDNYLKLLKCRIIHNNNC

Variants of: B1
Details: Homo sapiens; pH 7.4; Thermal; CD; NaH2PO4 100mM; structure 1RW5; whole UniProt chain shown

In the case of MNIKGSPWKGSLLLLLVSNLLLCQSVAPLPICPGGAARCQVTLRDLFDRAVVLSHYIHNLSSEMFSEFDKRYTHGRGFITKAINSCHTSSLATPEDKEQAQQMNQKDFLSLIVSILRSWNEPLYHLVTEVRGMQEAPEAILSKAVEIEEQTKRLLEDMELIVSQVHPETKENEIYPVWSGLPSLQMADEESRLSAYYNLLHCLRRDSHKIDNYLKLLKCRIIHNNNC [G157D], the Tm is reported as 84.2 °C, the “change of melting temperature, mutant - wild type (higher = more stable)” value (“change of melting temperature, mutant” below) is reported as 3.1 °C and the “unfolding enthalpy (calorimetric)” value is reported as 243 kJ/mol.

With MNIKGSPWKGSLLLLLVSNLLLCQSVAPLPICPGGAARCQVTLRDLFDRAVVLSHYIHNLSSEMFSEFDKRYTHGRGFITKAINSCHTSSLATPEDKEQAQQMNQKDFLSLIVSILRSWNEPLYHLVTEVRGMQEAPEAILSKAVEIEEQTKRLLEPMELIVSQVHPETKENEIYPVWSGLPSLQMADEESRLSAYYNLLHCLRRDSHKIDNYLKLLKCRIIHNNNC [G157P] the Tm was 70.8 °C, the “change of melting temperature, mutant” value was -10.3 °C and the “unfolding enthalpy (calorimetric)” value was 210 kJ/mol.

With MNIKGSPWKGSLLLLLVSNLLLCQSVAPLPICPGGAARCQVTLRDLFDRAVVLSHYIHNLSSEMFSEFDKRYTHGRGFITKAINSCHTSSLATPEDKEQAQQMNQKDFLSLIVSILRSWNEPLYHLVTEVRGMQEAPEAILSKAVEIEEQTKRLLERMELIVSQVHPETKENEIYPVWSGLPSLQMADEESRLSAYYNLLHCLRRDSHKIDNYLKLLKCRIIHNNNC [G157R] the Tm was 79 °C, the “change of melting temperature, mutant” value was -2.2 °C and the “unfolding enthalpy (calorimetric)” value was 234 kJ/mol.

In the case of MNIKGSPWKGSLLLLLVSNLLLCQSVAPLPICPGGAARCQVTLRDLFDRAVVLSHYIHNLSSEMFSEFDKRYTHGRGFITKAINSCHTSSLATPEDKEQAQQMNQKDFLSLIVSILRSWNEPLYHLVTEVRGMQEAPEAILSKAVEIEEQTKRLLEYMELIVSQVHPETKENEIYPVWSGLPSLQMADEESRLSAYYNLLHCLRRDSHKIDNYLKLLKCRIIHNNNC [G157Y], the Tm is reported as 96.8 °C and the “change of melting temperature, mutant” value is reported as 15.7 °C.

In the case of MNIKGSPWKGSLLLLLVSNLLLCQSVAPLPICPGGAARCQVTLRDLFDRAVVLSHYIHNLSSEMFSEFDKRYTHGRGFITKAINSCHTSSLATPEDKEQAQQMNQKDFLSLIVSILRSWNEPLYHLVTEVRGMQEAPEAILSKAVEIEEQTKRLLELMELIVSQVHPETKENEIYPVWSGLPSLQMADEESRLSAYYNLLHCLRRDSHKIDNYLKLLKCRIIHNNNC [G157L], the Tm is reported as 96.8 °C and the “change of melting temperature, mutant” value is reported as 15.7 °C.

With MNIKGSPWKGSLLLLLVSNLLLCQSVAPLPICPGGAARCQVTLRDLFDRAVVLSHYIHNLSSEMFSEFDKRYTHGRGFITKAINSCHTSSLATPEDKEQAQQMNQKDFLSLIVSILRSWNEPLYHLVTEVRGMQEAPEAILSKAVEIEEQTKRLLEFMELIVSQVHPETKENEIYPVWSGLPSLQMADEESRLSAYYNLLHCLRRDSHKIDNYLKLLKCRIIHNNNC [G157F] the Tm was 93.8 °C and the “change of melting temperature, mutant” value was 12.7 °C.

For MNIKGSPWKGSLLLLLVSNLLLCQSVAPLPICPGGAARCQVTLRDLFDRAVVLSHYIHNLSSEMFSEFDKRYTHGRGFITKAINSCHTSSLATPEDKEQAQQMNQKDFLSLIVSILRSWNEPLYHLVTEVRGMQEAPEAILSKAVEIEEQTKRLLEVMELIVSQVHPETKENEIYPVWSGLPSLQMADEESRLSAYYNLLHCLRRDSHKIDNYLKLLKCRIIHNNNC [G157V], the Tm was 101 °C and the “change of melting temperature, mutant” value was 19.7 °C.

With MNIKGSPWKGSLLLLLVSNLLLCQSVAPLPICPGGAARCQVTLRDLFDRAVVLSHYIHNLSSEMFSEFDKRYTHGRGFITKAINSCHTSSLATPEDKEQAQQMNQKDFLSLIVSILRSWNEPLYHLVTEVRGMQEAPEAILSKAVEIEEQTKRLLENMELIVSQVHPETKENEIYPVWSGLPSLQMADEESRLSAYYNLLHCLRRDSHKIDNYLKLLKCRIIHNNNC [G157N] the Tm was 89.8 °C and the “change of melting temperature, mutant” value was 8.7 °C.
